# Laboratory results as given in US20140142023A1, “Pharmaceutical Composition for Treating A Metabolic Syndrome” (SANOFI, priority 2011, published 2014).
# Like-named read-outs stand apart in the source and are kept apart here.
# B1: FGF-21: recombinant human FGF-21 (SEQ ID NO: 2): deletion of amino acids 1-28 of human FGF-21 and additional N-terminal glycine (protein)
# chain: GHPIPDSSPLLQFGGQVRQRYLYTDDAQQTEAHLEIREDGTVGGAADQSPESLLQLKALKPGVIQILGVKTSRFLCQRPDGALYGSLHFDPEACSFRELLLEDGYNVYQSEAHGLPLHLPGNKSPHRDPAPRGPARFLPLPGLPPAPPEPPGILAPQPPDVGSSDPLSMVGPSQGRSPSYAS
# modifications: G linked to fragment of human FGF21 from H29 to S209
# Experiments:
# db/db mice [1] = experiment: Oral glucose tolerance test (OGTT) in db/db mice after 21 days; format: in vivo; settings: after 21 days of treatment, 2 g/kg oral glucose, vs vehicle treated obese control
# Experimental: (§1) Female db/db mice (BKS.Cg-m+/+Leprdb/J, age of 6 weeks) were treated with vehicle (PBS), 0.05 mg·kg^−1·day^−1 AVE0010, 0.75 mg·kg^−1·day^−1 recombinant human FGF-21 (SEQ ID NO: 2) or a combined dose of FGF-21 (SEQ ID NO: 2) and AVE0010 (0.75+0.05 mg·kg^−1·day^−1) subcutaneously once daily. Mice were fed ad libitum. Before the first treatment, after one week and 4 weeks blood glucose and HbA1c were measured under fed conditions. After 21 days of treatment an oral glucose tolerance test (OGTT) was initiated. Fasted mice were orally challenged with 2 g·kg^−1 glucose solution and blood glucose was measured at indicated time points.
# db/db mice [2] = experiment: Fed blood glucose in db/db mice (age of 6 weeks); format: in vivo; settings: fed conditions, up to 4 weeks, AVE0010 0.05, FGF-21 0.75 mg/kg/day s.c. or combined
# Experimental: as §1
# mouse 3T3-L1 adipocytes = settings: in the presence and absence of insulin; cited from earlier work
# diabetic rhesus monkeys = settings: 6 weeks; cited from earlier work
# [3] = system: ob/ob mice, db/db mice and obese ZDF rats; settings: cited from earlier work
# [4] = ob/ob and db/db mice and 8 week old ZDF rats, dose dependent (WO03/011213)
# [5] = ob/ob, db/db mice and obese ZDF rats (Kharitonenkov et al. 2005)
molecule,measurement,setting,value
B1,glucose tolerance (OGTT),db/db mice [1],small improvement
same,blood glucose,db/db mice [2],inhibition of blood glucose increase
same,glucose uptake,mouse 3T3-L1 adipocytes,stimulate
same,HDL-cholesterol,diabetic rhesus monkeys,increased
same,LDL-cholesterol,diabetic rhesus monkeys,significantly lowered
same,body weight,diabetic rhesus monkeys,slightly but significantly decreased
same,fasting plasma glucose,diabetic rhesus monkeys,reduced
same,fructosamine,diabetic rhesus monkeys,reduced
same,glucagone levels,diabetic rhesus monkeys,reduced
same,hypoglycemia,diabetic rhesus monkeys,not observed
same,insulin,diabetic rhesus monkeys,reduced
same,triglyceride,diabetic rhesus monkeys,reduced
same,"mitogenicity, hypoglycemia, or weight gain","[3]; any dose tested, diabetic or healthy animals",did not induce
same,food intake or body weight/composition,"[3]; diabetic or lean mice and rats, 2 weeks of administration",did not affect
same,fed and fasting blood glucose,[3]; [4],decrease
same,glucagon levels,[3]; [4],decrease
same,triglycerides,[3]; [4],decrease
same,blood glucose,[3]; [5],significantly lowered
same,fasting insulin levels,[3]; [5],decreased
same,glucose clearance during an oral glucose tolerance test,[3]; [5],improved
same,triglycerides,[3]; [5],significantly lowered
